Test results as given in patent US20190389905A1 (OREGON STATE UNIVERSITY, published 2019).
The star is where a group is joined. Biotin = O=C1N[C@H]2[C@H](CS[C@H]2CCCCC(=O)*)N1; Ahx = NCCCCCC(=O)O

Experiments:
[1] = molecular target: T1, sAniA, recombinant AniA (NGO1276) of Neisseria gonorrhoeae FA1090 lacking the N-terminal palmitoylation … (Neisseria gonorrhoeae FA1090, UniProt Q02219 19-392); assay: cell-based or functional assay
T1 sequence: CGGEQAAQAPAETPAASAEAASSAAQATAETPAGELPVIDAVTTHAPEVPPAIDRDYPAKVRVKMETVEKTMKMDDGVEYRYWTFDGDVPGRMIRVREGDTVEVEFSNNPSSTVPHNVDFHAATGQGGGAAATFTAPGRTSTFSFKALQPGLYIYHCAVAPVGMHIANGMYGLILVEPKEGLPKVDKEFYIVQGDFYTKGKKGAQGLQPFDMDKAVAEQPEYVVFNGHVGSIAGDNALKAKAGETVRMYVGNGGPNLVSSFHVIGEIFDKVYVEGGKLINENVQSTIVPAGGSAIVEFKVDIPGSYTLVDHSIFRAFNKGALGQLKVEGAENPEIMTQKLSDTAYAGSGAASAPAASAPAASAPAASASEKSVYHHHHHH

[2] = molecular target: T1, sAniA, recombinant AniA (NGO1276) of …; assay: phage ELISA on sAniA-coated wells; reference is phage-displayed 12-5
Procedure: Individual wells in 96-well transparent plates (Greiner-Bio) were coated with 100 μL of 100 pg/mL of sAniA suspended in 0.1 M NaHCO₃pH 8.6 and incubated overnight at 4° C. in an airtight humidified box. After incubation, excess target solution was shaken out and wells were filled with 300 μL of blocking buffer (0.1 M NaHCO₃pH 8.6, 5 mg/mL BSA). Following 2 h incubation at 4° C., blocking buffer was removed and wells were washed six times with 200 μL of TBST (50 mM Tris-HCl pH 8.6, 150 mM NaCl, 0.5% Tween). Isolated individual phage amplifications (10¹⁰ PFU) in 100 μl of TBST were incubated at room temperature for 1 h with rocking. All wells were then cleared by shaking and washed six times with 200 μL of TBST. A solution containing Anti-M13 HRP linked-Monoclonal Antibodies (NEB) (1:5,000 dilution in blocking buffer) was distributed at 200 μL per well and incubated with rocking at room temperature for 1 h. Wells were washed six times with TBST and incubated with Turbo TMB-ELISA for 30 min with rocking at room temperature. […] Data from seven independent experiments are shown with mean and SEM

[3] = molecular target: AniA expressed by intact N. gonorrhoeae FA1090 ΔaniA/Plac::aniA cells (Neisseria gonorrhoeae FA1090), Q02219; assay: cell-based or functional assay
[4] = molecular target: T1, sAniA, recombinant AniA (NGO1276) of …; assay: biolayer interferometry (OctetRed 96): C7-3Bio on streptavidin sensors, sAniA 50-1000 nM in solution, 2:1 heterogeneous ligand model, average ± SEM of three experiments
Procedure: Streptavidin (SA) biosensors (ForteBio) were loaded with C7-3Bio peptides for 10 min. Unloaded tips were used as a control. The sAniA samples were prepared in Kinetic Buffer in concentrations of 50, 100, 500, and 1000 nM. The baseline was established for 240 s and the association and dissociation steps were performed for 500 s. Experiments were performed in three biological replicates with the curve fitting using 2:1 (Heterogeneous Ligand) model and KD value calculations were completed using Octet Data Analysis (version 9).
The BLI experiments were performed using steady state method and curve fitting of the association and dissociation responses.

With H-ACNYCRLNLWGGGS-NH2 (cysteine pairing not given here) [synthetic peptide C7-3 (H-ACNYCRLNLWGGGS-NH2)] the “IC50 of inhibition of nitrite reductase activity of sAniA (DAN assay)” value [1] was 10.2 µM.

B1: phage-displayed peptide C7-3 (CNYCRLNLW), M13 phage clone from the Ph.D.-C7C library (peptide, not shown: large carriers)
peptide: CNYCRLNLW
notes: Tested as whole phage (10^10 PFU per well) in the phage ELISA; Trp stands where the library's second Cys would be; also called phage-expressed C7-3
In the case of B1, the “fold lower relative binding in comparison to 12-5” value [2] is reported as about 2 fold.

In the case of H-ACNFCRLNLWGGGS-NH2 (cysteine pairing not given here) [synthetic peptide C7-3P (H-ACNFCRLNLWGGGS-NH2)], the “IC50 of inhibition of nitrite reductase activity of sAniA (DAN assay)” value [1] is reported as over 105 µM.

In the case of H-ACNACRLNLWGGGS-NH2 (cysteine pairing not given here) [synthetic peptide C7-3A (H-ACNACRLNLWGGGS-NH2)], the “IC50 of inhibition of nitrite reductase activity of sAniA (DAN assay)” value [1] is reported as about 25.2 µM.

Work on H-ACNYCRLNLWGGGS-NH2 (cysteine pairing not given here) [synthetic peptide C7-3 (H-…-NH2)] yielded a percent inhibition of nitrite reductase activity of intact N. gonorrhoeae cells at 0.6 mM peptide [3] of 50%.

Work on H-ACSYCRLNLWGGGS-NH2 (cysteine pairing not given here) [synthetic peptide C7-3m2 (H-…-NH2)] yielded a percent inhibition of nitrite reductase activity of intact N. gonorrhoeae cells at 0.3 mM peptide [3] of 50% and a percent inhibition of nitrite reductase activity of intact N. gonorrhoeae cells at 0.6 mM peptide [3] of 90%.

B2: C7-3Bio, C7-3 biotinylated at the N-terminus (BiotinAhx-ACNYCRLNLWGGGS-NH2) (peptide)
peptide: {Biotin-Ahx}-ACNYCRLNLWGGGS-NH2
modifications: cysteine pairing not given here
notes: Immobilized on streptavidin biosensors in the BLI experiment; also called biotinylated C7-3
In the case of B2, the Kd [4] is reported as 0.775 µM and the “IC50 of inhibition of nitrite reductase activity of AniA (DAN assay)” value [1] is reported as 13.5 µM.

With H-ACSYCRLNLWGGGS-NH2 (cysteine pairing not given here) [synthetic peptide C7-3m2 (H-ACSYCRLNLWGGGS-NH2)] the “IC50 of inhibition of nitrite reductase activity of sAniA (DAN assay)” value [1] was 4.81 µM.

H-ACNYSRLNLWGGGS-NH2 [synthetic peptide C7-3m1 (H-ACNYSRLNLWGGGS-NH2)] was tested, and the “IC50 of inhibition of nitrite reductase activity of sAniA (DAN assay)” value [1] was 5.91 µM.
